Reference: the supplement of paper PMC10567573

B1: C2orf65 (parent)
chain: QLDWDELETNQQHFHALCHSLLVS
B2: SLC19A2 (parent)
chain: FHHIPSTCQRVNGIKVQNGGIVTD

Variants of: B1
Experiment: protein stability index of a GFP-peptide fusion (GPS, HEK-293T) (PSI 1-6); higher = more stable
Conditions: c terminus: a fixed tail appended
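Further: lentivirally expressed fusions sorted by FACS into six bins by GFP to DsRed ratio, PSI derived from sequencing read proportions per bin multiplied by bin number.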

Variant | protein stability index
QLDWDELETNQQHFHALCHSLLLS | 1.92
QLDWDELETNQQHFHALCHSLLQS | 2.48
QLDWDELETNQQHFHALCHSLLTS | 2.35
QLDWDELETNQQHFHALCHSLLGS | 3.26
QLDWDELETNQQHFHALCHSLLYS | 2.27
QLDWDELETNQQHFHALCHSLLCS | 2.09
QLDWDELETNQQHFHALCHSLLRS | 2.01
QLDWDELETNQQHFHALCHSLLAS | 2.68
QLDWDELETNQQHFHALCHSLLPS | 2.95
QLDWDELETNQQHFHALCHSLLSS | 2.63
QLDWDELETNQQHFHALCHSLLFS | 1.69
QLDWDELETNQQHFHALCHSLLHS | 2.36
QLDWDELETNQQHFHALCHSLLDS | 3.38
QLDWDELETNQQHFHALCHSLLMS | 1.99
QLDWDELETNQQHFHALCHSLLES | 2.68
QLDWDELETNQQHFHALCHSLLNS | 2.75
QLDWDELETNQQHFHALCHSLLWS | 1.57
QLDWDELETNQQHFHALCHSLLIS | 1.96
QLDWDELETNQQHFHALCHSLLKS | 2.45

Variant | protein stability index
QLDWDELETNQQHFHALCHSYLVS | 2.37
QLDWDELETNQQHFHALCHSLWVS | 1.64
QLDWDELETNQQHFHALCHSLPVS | 3.16
QLDWDELETNQQHFHALCHSLRVS | 2.96
QLDWDELETNQQHFHALCHSLKVS | 2.37
QLDWDELETNQQHFHALCHSLDVS | 3.77
QLDWDELETNQQHFHALCHSLVVS | 2.34
QLDWDELETNQQHFHALCHSLMVS | 3.01
QLDWDELETNQQHFHALCHSLAVS | 3.29
QLDWDELETNQQHFHALCHSLTVS | 3.08
QLDWDELETNQQHFHALCHSLNVS | 2.69
QLDWDELETNQQHFHALCHSLEVS | 3.38
QLDWDELETNQQHFHALCHSLYVS | 2.44
QLDWDELETNQQHFHALCHSLHVS | 2.69
QLDWDELETNQQHFHALCHSLQVS | 2.81
QLDWDELETNQQHFHALCHSLIVS | 2.95
QLDWDELETNQQHFHALCHSLSVS | 2.58
QLDWDELETNQQHFHALCHSLCVS | 2.58
QLDWDELETNQQHFHALCHSLFVS | 2.21

Variant | protein stability index
QLDWDELETNQQHFHALCHSLLVF | 1.7
QLDWDELETNQQHFHALCHSLLVE | 2.11
QLDWDELETNQQHFHALCHSLLVN | 2.25
QLDWDELETNQQHFHALCHSLLVH | 2.33
QLDWDELETNQQHFHALCHSLLVM | 2.02
QLDWDELETNQQHFHALCHSLLVD | 3.08
QLDWDELETNQQHFHALCHSLLVQ | 2.04
QLDWDELETNQQHFHALCHSLLVR | 2.1
QLDWDELETNQQHFHALCHSLLVA | 2.11
QLDWDELETNQQHFHALCHSLLVT | 1.89
QLDWDELETNQQHFHALCHSLLVW | 1.38
QLDWDELETNQQHFHALCHSLLVY | 2.54
QLDWDELETNQQHFHALCHSLLVG | 1.78
QLDWDELETNQQHFHALCHSLLVL | 2.73
QLDWDELETNQQHFHALCHSLLVC | 2.18
QLDWDELETNQQHFHALCHSLLVV | 1.56
QLDWDELETNQQHFHALCHSLLVP | 2.5
QLDWDELETNQQHFHALCHSLLVK | 2.27
QLDWDELETNQQHFHALCHSLLVI | 2.99

Variants of: B2
Experiment: as above
Conditions: c terminus: a fixed tail appended

Variant | protein stability index
CHHIPSTCQRVNGIKVQNGGIVTD | 3.84
SHHIPSTCQRVNGIKVQNGGIVTD | 3.48
VHHIPSTCQRVNGIKVQNGGIVTD | 4.14
HHHIPSTCQRVNGIKVQNGGIVTD | 3.53
PHHIPSTCQRVNGIKVQNGGIVTD | 3.84
KHHIPSTCQRVNGIKVQNGGIVTD | 2.78
DHHIPSTCQRVNGIKVQNGGIVTD | 4.42
EHHIPSTCQRVNGIKVQNGGIVTD | 4.27
GHHIPSTCQRVNGIKVQNGGIVTD | 3.78
YHHIPSTCQRVNGIKVQNGGIVTD | 2.5
THHIPSTCQRVNGIKVQNGGIVTD | 3.66
LHHIPSTCQRVNGIKVQNGGIVTD | 2.81
IHHIPSTCQRVNGIKVQNGGIVTD | 3.46
MHHIPSTCQRVNGIKVQNGGIVTD | 3.33
WHHIPSTCQRVNGIKVQNGGIVTD | 1.85
RHHIPSTCQRVNGIKVQNGGIVTD | 3.64
AHHIPSTCQRVNGIKVQNGGIVTD | 3.95
NHHIPSTCQRVNGIKVQNGGIVTD | 3.25
QHHIPSTCQRVNGIKVQNGGIVTD | 3.71
FHHIPSNCQRVNGIKVQNGGIVTD | 2.42
FHHIPSECQRVNGIKVQNGGIVTD | 2.32
FHHIPSRCQRVNGIKVQNGGIVTD | 1.77

Variant | protein stability index
FHHIPSACQRVNGIKVQNGGIVTD | 1.39
FHHIPSYCQRVNGIKVQNGGIVTD | 1.91
FHHIPSHCQRVNGIKVQNGGIVTD | 2.3
FHHIPSKCQRVNGIKVQNGGIVTD | 2.23
FHHIPSDCQRVNGIKVQNGGIVTD | 2.58
FHHIPSPCQRVNGIKVQNGGIVTD | 1.91
FHHIPSVCQRVNGIKVQNGGIVTD | 2
FHHIPSICQRVNGIKVQNGGIVTD | 1.45
FHHIPSSCQRVNGIKVQNGGIVTD | 2.31
FHHIPSQCQRVNGIKVQNGGIVTD | 1.83
FHHIPSFCQRVNGIKVQNGGIVTD | 3.29
FHHIPSGCQRVNGIKVQNGGIVTD | 1.57
FHHIPSCCQRVNGIKVQNGGIVTD | 2.21
FHHIPSLCQRVNGIKVQNGGIVTD | 2.59
FHHIPSMCQRVNGIKVQNGGIVTD | 2.03
FHHITSTCQRVNGIKVQNGGIVTD | 2.67
FHHICSTCQRVNGIKVQNGGIVTD | 1.86
FHHIGSTCQRVNGIKVQNGGIVTD | 2.12
FHHIESTCQRVNGIKVQNGGIVTD | 2.83
FHHIQSTCQRVNGIKVQNGGIVTD | 1.89
FHHISSTCQRVNGIKVQNGGIVTD | 3.55
FHHIISTCQRVNGIKVQNGGIVTD | 1.97

Variant | protein stability index
FHHIWSTCQRVNGIKVQNGGIVTD | 2.91
FHHIASTCQRVNGIKVQNGGIVTD | 1.97
FHHINSTCQRVNGIKVQNGGIVTD | 2.11
FHHIDSTCQRVNGIKVQNGGIVTD | 2.71
FHHIKSTCQRVNGIKVQNGGIVTD | 2.61
FHHIYSTCQRVNGIKVQNGGIVTD | 2.33
FHHIRSTCQRVNGIKVQNGGIVTD | 1.58
FHHILSTCQRVNGIKVQNGGIVTD | 1.86
FHHIVSTCQRVNGIKVQNGGIVTD | 1.91
FHHIMSTCQRVNGIKVQNGGIVTD | 2.23
FHHIHSTCQRVNGIKVQNGGIVTD | 1.79
FHHLPSTCQRVNGIKVQNGGIVTD | 2.37
FHHTPSTCQRVNGIKVQNGGIVTD | 2
FHHCPSTCQRVNGIKVQNGGIVTD | 1.67
FHHNPSTCQRVNGIKVQNGGIVTD | 2.07
FHHVPSTCQRVNGIKVQNGGIVTD | 1.67
FHHDPSTCQRVNGIKVQNGGIVTD | 2.91
FHHAPSTCQRVNGIKVQNGGIVTD | 2.11
FHHEPSTCQRVNGIKVQNGGIVTD | 2.77
FHHRPSTCQRVNGIKVQNGGIVTD | 2.02
FHHFPSTCQRVNGIKVQNGGIVTD | 3.14
FHHPPSTCQRVNGIKVQNGGIVTD | 2.37

Variant | protein stability index
FHHQPSTCQRVNGIKVQNGGIVTD | 2.1
FHHMPSTCQRVNGIKVQNGGIVTD | 2.01
FHHKPSTCQRVNGIKVQNGGIVTD | 1.94
FHHGPSTCQRVNGIKVQNGGIVTD | 2.48
FHHSPSTCQRVNGIKVQNGGIVTD | 3.05
FHHHPSTCQRVNGIKVQNGGIVTD | 1.85
FHHYPSTCQRVNGIKVQNGGIVTD | 2.67
FGHIPSTCQRVNGIKVQNGGIVTD | 3.01
FDHIPSTCQRVNGIKVQNGGIVTD | 3.31
FIHIPSTCQRVNGIKVQNGGIVTD | 2.04
FTHIPSTCQRVNGIKVQNGGIVTD | 2.4
FCHIPSTCQRVNGIKVQNGGIVTD | 2.28
FSHIPSTCQRVNGIKVQNGGIVTD | 3.17
FNHIPSTCQRVNGIKVQNGGIVTD | 3.73
FRHIPSTCQRVNGIKVQNGGIVTD | 2.61
FEHIPSTCQRVNGIKVQNGGIVTD | 3.65
FYHIPSTCQRVNGIKVQNGGIVTD | 1.85
FVHIPSTCQRVNGIKVQNGGIVTD | 2.35
FMHIPSTCQRVNGIKVQNGGIVTD | 2.47
FKHIPSTCQRVNGIKVQNGGIVTD | 2.52
FLHIPSTCQRVNGIKVQNGGIVTD | 2.21
FWHIPSTCQRVNGIKVQNGGIVTD | 3

Variant | protein stability index
FAHIPSTCQRVNGIKVQNGGIVTD | 2.73
FFHIPSTCQRVNGIKVQNGGIVTD | 2.03
FQHIPSTCQRVNGIKVQNGGIVTD | 2.83
FPHIPSTCQRVNGIKVQNGGIVTD | 3.26
FHHIPGTCQRVNGIKVQNGGIVTD | 1.93
FHHIPTTCQRVNGIKVQNGGIVTD | 1.6
FHHIPYTCQRVNGIKVQNGGIVTD | 2.01
FHHIPQTCQRVNGIKVQNGGIVTD | 2.32
FHHIPNTCQRVNGIKVQNGGIVTD | 1.6
FHHIPKTCQRVNGIKVQNGGIVTD | 1.86
FHHIPMTCQRVNGIKVQNGGIVTD | 1.92
FHHIPETCQRVNGIKVQNGGIVTD | 2.22
FHHIPATCQRVNGIKVQNGGIVTD | 2.17
FHHIPWTCQRVNGIKVQNGGIVTD | 3.58
FHHIPPTCQRVNGIKVQNGGIVTD | 1.82
FHHIPRTCQRVNGIKVQNGGIVTD | 1.9
FHHIPHTCQRVNGIKVQNGGIVTD | 2.02
FHHIPLTCQRVNGIKVQNGGIVTD | 2.36
FHHIPDTCQRVNGIKVQNGGIVTD | 2.28
FHHIPFTCQRVNGIKVQNGGIVTD | 2.69
FHHIPITCQRVNGIKVQNGGIVTD | 1.71
FHHIPCTCQRVNGIKVQNGGIVTD | 2.27

Variant | protein stability index
FHHIPVTCQRVNGIKVQNGGIVTD | 2.07
FHHIPSTAQRVNGIKVQNGGIVTD | 2.36
FHRIPSTCQRVNGIKVQNGGIVTD | 2.53
FHQIPSTCQRVNGIKVQNGGIVTD | 1.71
FHNIPSTCQRVNGIKVQNGGIVTD | 2.25
FHGIPSTCQRVNGIKVQNGGIVTD | 2.31
FHKIPSTCQRVNGIKVQNGGIVTD | 2.79
FHAIPSTCQRVNGIKVQNGGIVTD | 2.22
FHLIPSTCQRVNGIKVQNGGIVTD | 1.96
FHTIPSTCQRVNGIKVQNGGIVTD | 2.06
FHEIPSTCQRVNGIKVQNGGIVTD | 2.53
FHDIPSTCQRVNGIKVQNGGIVTD | 3
FHCIPSTCQRVNGIKVQNGGIVTD | 1.92
FHYIPSTCQRVNGIKVQNGGIVTD | 2.11
FHSIPSTCQRVNGIKVQNGGIVTD | 1.33
FHFIPSTCQRVNGIKVQNGGIVTD | 1.39
FHMIPSTCQRVNGIKVQNGGIVTD | 2.8
FHPIPSTCQRVNGIKVQNGGIVTD | 2.03
FHWIPSTCQRVNGIKVQNGGIVTD | 2.18
FHIIPSTCQRVNGIKVQNGGIVTD | 1.59
FHVIPSTCQRVNGIKVQNGGIVTD | 3.16
